Our source for the Serum half-life and EC50 values is patent publication US20220340635A1, “FUSION PROTEIN FOR TREATMENT OF METABOLIC DISEASE” (ZHEJIANG DOER BIOLOGICS CORPORATION, priority 2019, published 2022).

Like-named read-outs stand apart in the source and are kept apart here.

The conditions of series [1]: monkey, in vivo; cited from earlier work.
For series [2] the following is noted: mouse, in vivo; cited from earlier work.
In a further series the test system is FGF21 signaling pathway. Put plainly: FGF21 cell-based bioactivity assay, luciferase reporter in HEK293T cells transfected with GAL4DBD-ELK1 and KLB (β-klotho). As to conditions: Table 4, 6 h. The text has this: The puromycin resistance gene pac was amplified by PCR and cloned into pcDNA3.1(+) to replace the original G418 resistance gene. The GAL4DBD-ELK1, IRES. and KLB (β-klotho) genes were amplified by PCR and cloned into the pcDNA-Puro plasmid in sequence to construct the plasmid pcDNA-GAL4DBD-ELK1-IRES-KLB-Pero for cell transfection and screening. The constructed recombinant plasmid and the pFR-Luc plasmid (Agilent) were extracted by Omega E.Z.N.A.® Endo-Free Plasmid Midi Kit for future use. The cell transfection process was as follows: HEK293T cells were plated 3×10^5 cells per well in a 6-well plate and cultured overnight.
After washing the cells twice with Opti-MEM medium, 2 ml Opti-MEM medium was added. Cell transfection reagent was prepared according to the following proportion: Lipofectamine 2000 (6 μl ): pFR-Luc (4.6 μg): pcDNA-GAL4DBD-ELK1-IRES-KLB-Pura (1 μg). […]
The cells were digested with pancreatin to prepare a cell suspension (1×10^5 cells/ml, DMEM+5% FBS+1 μg/ml puromycin) after reaching confluence in the dish, followed by plating in a 96-well plate (100 μl per well), and culturing overnight. Samples of gradient concentrations were added and cultured for 6 h before fluorescence detection by the Luciferase Reporter Assay Kit (Lucifersae reporter kit, Ray Biotech, Cat:68-LuciR-S200).

B1: Natural FGF21: natural fibroblast growth factor 21, SEQ ID NO.87 (protein)
chain: HPIPDSSPLLQFGGQVRQRYLYTDDAQQTEAHLEIREDGTVGGAADQSPESLLQLKALKPGVIQILGVKTSRFLCQRPDGALYGSLHFDPEACSFRELLLEDGYNVYQSEAHGLPLHLPGNKSPHRDPAPRGPARFLPLPGLPPALPEPPGILAPQPPDVGSSDPLSMVGPSQGRSPSYAS
modifications: Amino acid sequence of natural FGF21
With B1, the Serum half-life in series [1] was 2 h; in series [2], 0.5 h. Besides, in the series on FGF21 signaling pathway, the EC50 came out at 0.12 nM.

By EC50 is commonly meant the concentration that produces a half-maximal response. Low readings indicate higher potency in that assay, high ones lower potency in that assay.
